Target: T1, glypican-3 (GPC3) peptide on HLA-A*02:01 (human)
T1 peptide: FIDKKVLKV
Test: multimer staining

B1: TCR P1-1 (TCR, V domains shown)
Valpha: AQSVTQPDIHITVSEGASLELRCNYSYGATPYLFWYVQSPGQGLQLLLKYFSGDTLVQGIKGFEAEFKRSQSSFNLRKPSVHWSDAAEYFCAVGVLNFGNEKLTFGTGTRLTIIP
Vbeta: SQTIHQWPATLVQPVGSPLSLECTVEGTSNPNLYWYRQAAGRGLQLLFYSVGIGQISSEVPQNLSASRPQDRQFILSSKKLLLSDSGFYLCAWSEDTAYYGYTFGSGTRLTVV
- binding result: recognises

From patent US20170267737A1 (published 2017)
